Results as given in publication PMC6081406 (Nature Communications, 2018).
Like-named read-outs stand apart in the source and are kept apart here.

Assays:
[1] = biological target: GABAAR α1 subunit large cytoplasmic loop (AA 334-420) (UniProt P62813)
[2] = biological target: GABAAR α2 subunit large cytoplasmic loop (AA 335-419) (UniProt P23576)
[3] = biological target: GABAAR α3 subunit large cytoplasmic loop (AA 392-406) (UniProt P20236)
[4] = biological target: GABAAR-α2 large cytoplasmic loop (AA 335-419); experiment: ITC; CB-SH3 titrated against the GABAAR α-subunit loops and truncated α2 constructs; purified proteins
[5] = biological target: GABAAR-α2 loop truncation α2-351St (AA 307-350); experiment: as above
[6] = biological target: large cytoplasmic loop of the GlyR β subunit (AA 378-425); experiment: ITC; CB-SH3 titrated against the receptor loops and truncated constructs
[7] = biological target: GABAAR α1 subunit large cytoplasmic loop (AA 334-420) (UniProt P62813); experiment: as above
[8] = biological target: GABAAR α3 subunit large cytoplasmic loop (AA 392-406) (UniProt P20236); experiment: as above
[9] = biological target: T1, GABAAR α2 subunit large cytoplasmic loop (AA 335-419) (UniProt P23576 335-419); experiment: as above; conditions: both partners purified
T1 construct: GABAA receptor α2 subunit, large cytoplasmic loop, AA 335-419; also called α2L; GABAAR-α2L

[10] = biological target: GABAAR-α2 loop truncation α2-335St (AA 307-334); experiment: ITC; CB-SH3 titrated against the GABAAR α-subunit loops and truncated α2 constructs; purified proteins
[11] = biological target: GABAAR-α2 loop fragment α2-min3; experiment: as above
[12] = biological target: T2, SH3 domain of collybistin (CB-SH3) (mouse (murine), UniProt Q3UTH8 4-72); experiment: as above; conditions: both partners purified
T2 construct: collybistin (CB1, ARHGEF9), murine, residues 4-72, encompassing the complete SH3 domain (residues 8-67); said to be identical to the SH3 domain of the human CB isoform hPEM-2; pGEX vector construct provided by T. Soykan (Brose lab); also called collybistin SH3; source: E. coli, purified (GST tag, in-situ thrombin cleavage, Superdex 200 SEC); not shown: GST, N-terminal, cleaved
T2 sequence (looked up): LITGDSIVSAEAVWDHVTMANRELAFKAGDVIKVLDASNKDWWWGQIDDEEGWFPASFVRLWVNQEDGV

[13] = biological target: T3, GABAA receptor alpha2 large intracellular loop (Mus musculus, UniProt P26048); experiment: ITC
T3 chain: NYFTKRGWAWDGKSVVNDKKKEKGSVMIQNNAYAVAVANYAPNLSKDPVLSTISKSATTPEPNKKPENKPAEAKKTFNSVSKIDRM

In the case of “E domain of gephyrin (GephE, AA 318-736) (domain or fragment)”, the Kd [1] is reported as 17 µM, the Kd [2] is reported as > 500 µM and the Kd [3] is reported as 5 µM.

B1: SH3 domain of collybistin (CB-SH3) (domain or fragment, murine, UniProt Q3UTH8 4-72, looked up)
chain: LITGDSIVSAEAVWDHVTMANRELAFKAGDVIKVLDASNKDWWWGQIDDEEGWFPASFVRLWVNQEDGV
notes: collybistin CB1, murine, residues 4-72, encompassing the complete SH3 domain (residues 8-67); pGEX construct provided by T. Soykan (Brose lab); source: E. coli, purified (GST tag, in-situ thrombin cleavage, Superdex 200 SEC); not shown: GST, N-terminal, cleaved
With B1 the stoichiometry N [4] was 0.62, the Kd [5] was 7 µM and the Kd [6] was > 500 µM. The Kd [7] was 500 µM, the Kd [8] was > 500 µM and the Kd [9] was 1.3 µM.

B2: SH3 domain of collybistin (CB-SH3), Q3UTH8 4-72 (domain or fragment)
chain: LITGDSIVSAEAVWDHVTMANRELAFKAGDVIKVLDASNKDWWWGQIDDEEGWFPASFVRLWVNQEDGV
In the case of B2, the Kd [10] is reported as > 500 µM and the Kd [11] is reported as > 500 µM.

B3: GABAAR-α2 loop fragment α2-min2 (peptide)
chain: KGSVMIQNNAYAVAVANYAPNL
notes: GABA-A receptor subunit alpha-2, stretch of the large cytoplasmic loop
For B3, the Kd [12] was > 500 µM.

B4: Collybistin SH3 (protein)
chain: ITGDSIVSAEAVWDHVTMANRGVAFKAGDVIKVLDASNKDWWWGQIDDEEGWFPASFVRLWVNQED
B4 showed a Kd [13] of 1 µM.

B5: GABAAR-α2 loop fragment α2-min1 (peptide)
chain: QNNAYAVAVANYAPN
notes: as for B3
In the case of B5, the Kd [12] is reported as > 500 µM.
